According to the Human Domainome abundance scans (Beltran et al. 2025):
± gives the uncertainty stated by the source.

B1: Ankyrin-2, residues 3571 to 3650; numbered along this chain, Q01484 (parent)
chain: ERLAYIADHLGFSWTELARELDFTEEQIHQIRIENPNSLQDQSHALLKYWLERDGKHATDTNLVECLTKINRMDIVHLME

Variants of: B1
Assay: abundance fitness (aPCA) (normalised: wild type 0, dead -1); higher = more abundant; growth selection in yeast, the domain comes from the species named
Conditions: Homo sapiens

Point of comparison: ERLAYIADHLGFSWTELARELDFTEEQIHQIRIENPNSLQDQSHALLKYWLERDGKHATDTNLAECLTKINRMDIVHLME, abundance fitness -0.019 ± 0.078. Against it:
- ERLAYIADHLGFSWTELARELDFTEEQIHQIRIENPNSLQDQSHALLKYWLERDGKHATDTNLNECLTKINRMDIVHLME — within error, -0.369 ± 0.28
- ERLAYIADHLGFSWTELARELDFTEEQIHQIRIENPNSLQDQSHALLKYWLERDGKHATDTNLFECLTKINRMDIVHLME — within error, -0.073 ± 0.1
- ERLAYIADHLGFSWTELARELDFTEEQIHQIRIENPNSLQDQSHALLKYWLERDGKHATDTNLMECLTKINRMDIVHLME — within error, 0.007 ± 0.12
- ERLAYIADHLGFSWTELARELDFTEEQIHQIRIENPNSLQDQSHALLKYWLERDGKHATDTNLEECLTKINRMDIVHLME — within error, 0.079 ± 0.12
- ERLAYIADHLGFSWTELARELDFTEEQIHQIRIENPNSLQDQSHALLKYWLERDGKHATDTNLIECLTKINRMDIVHLME — within error, 0.009 ± 0.063
- ERLAYIADHLGFSWTELARELDFTEEQIHQIRIENPNSLQDQSHALLKYWLERDGKHATDTNLGECLTKINRMDIVHLME — within error, -0.108 ± 0.078
- ERLAYIADHLGFSWTELARELDFTEEQIHQIRIENPNSLQDQSHALLKYWLERDGKHATDTNLCECLTKINRMDIVHLME — within error, -0.134 ± 0.096
- ERLAYIADHLGFSWTELARELDFTEEQIHQIRIENPNSLQDQSHALLKYWLERDGKHATDTNLRECLTKINRMDIVHLME — within error, 0.01 ± 0.076
- ERLAYIADHLGFSWTELARELDFTEEQIHQIRIENPNSLQDQSHALLKYWLERDGKHATDTNLQECLTKINRMDIVHLME — within error, -0.065 ± 0.11
- ERLAYIADHLGFSWTELARELDFTEEQIHQIRIENPNSLQDQSHALLKYWLERDGKHATDTNLTECLTKINRMDIVHLME — within error, 0.025 ± 0.095
- ERLAYIADHLGFSWTELARELDFTEEQIHQIRIENPNSLQDQSHALLKYWLERDGKHATDTNLDECLTKINRMDIVHLME — within error, -0.206 ± 0.12
- ERLAYIADHLGFSWTELARELDFTEEQIHQIRIENPNSLQDQSHALLKYWLERDGKHATDTNLLECLTKINRMDIVHLME — within error, -0.016 ± 0.057
- ERLAYIADHLGFSWTELARELDFTEEQIHQIRIENPNSLQDQSHALLKYWLERDGKHATDTNLSECLTKINRMDIVHLME — within error, -0.011 ± 0.055
- ERLAYIADHLGFSWTELARELDFTEEQIHQIRIENPNSLQDQSHALLKYWLERDGKHATDTNLYECLTKINRMDIVHLME — within error, -0.041 ± 0.14
- ERLAYIADHLGFSWTELARELDFTEEQIHQIRIENPNSLQDQSHALLKYWLERDGKHATDTNLPECLTKINRMDIVHLME — lower, -0.266 ± 0.076
- ERLAYIADHLGFSWTELARELDFTEEQIHQIRIENPNSLQDQSHALLKYWLERDGKHATDTNLWECLTKINRMDIVHLME — within error, -0.165 ± 0.14
- ERLAYIADHLGFSWTELARELDFTEEQIHQIRIENPNSLQDQSHALLKYWLERDGKHATDTNLVACLTKINRMDIVHLME — within error, -0.012 ± 0.052
- ERLAYIADHLGFSWTELARELDFTEEQIHQIRIENPNSLQDQSHALLKYWLERDGKHATDTNLVHCLTKINRMDIVHLME — within error, -0.059 ± 0.13
- ERLAYIADHLGFSWTELARELDFTEEQIHQIRIENPNSLQDQSHALLKYWLERDGKHATDTNLVGCLTKINRMDIVHLME — within error, 0.014 ± 0.048
- ERLAYIADHLGFSWTELARELDFTEEQIHQIRIENPNSLQDQSHALLKYWLERDGKHATDTNLVCCLTKINRMDIVHLME — within error, -0.147 ± 0.11
- ERLAYIADHLGFSWTELARELDFTEEQIHQIRIENPNSLQDQSHALLKYWLERDGKHATDTNLVDCLTKINRMDIVHLME — within error, 0.193 ± 0.21
- ERLAYIADHLGFSWTELARELDFTEEQIHQIRIENPNSLQDQSHALLKYWLERDGKHATDTNLVWCLTKINRMDIVHLME — lower, -0.246 ± 0.075
- ERLAYIADHLGFSWTELARELDFTEEQIHQIRIENPNSLQDQSHALLKYWLERDGKHATDTNLVKCLTKINRMDIVHLME — within error, -0.086 ± 0.098
- ERLAYIADHLGFSWTELARELDFTEEQIHQIRIENPNSLQDQSHALLKYWLERDGKHATDTNLVTCLTKINRMDIVHLME — within error, 0.031 ± 0.057
- ERLAYIADHLGFSWTELARELDFTEEQIHQIRIENPNSLQDQSHALLKYWLERDGKHATDTNLVSCLTKINRMDIVHLME — within error, -0.056 ± 0.05
- ERLAYIADHLGFSWTELARELDFTEEQIHQIRIENPNSLQDQSHALLKYWLERDGKHATDTNLVRCLTKINRMDIVHLME — within error, -0.011 ± 0.045
- ERLAYIADHLGFSWTELARELDFTEEQIHQIRIENPNSLQDQSHALLKYWLERDGKHATDTNLVPCLTKINRMDIVHLME — within error, 0.015 ± 0.051
- ERLAYIADHLGFSWTELARELDFTEEQIHQIRIENPNSLQDQSHALLKYWLERDGKHATDTNLVICLTKINRMDIVHLME — within error, 0.143 ± 0.15
- ERLAYIADHLGFSWTELARELDFTEEQIHQIRIENPNSLQDQSHALLKYWLERDGKHATDTNLVLCLTKINRMDIVHLME — within error, -0.072 ± 0.058
- ERLAYIADHLGFSWTELARELDFTEEQIHQIRIENPNSLQDQSHALLKYWLERDGKHATDTNLVNCLTKINRMDIVHLME — within error, -0.231 ± 0.25
- ERLAYIADHLGFSWTELARELDFTEEQIHQIRIENPNSLQDQSHALLKYWLERDGKHATDTNLVMCLTKINRMDIVHLME — lower, -0.243 ± 0.096
- ERLAYIADHLGFSWTELARELDFTEEQIHQIRIENPNSLQDQSHALLKYWLERDGKHATDTNLVVCLTKINRMDIVHLME — within error, -0.099 ± 0.058
- ERLAYIADHLGFSWTELARELDFTEEQIHQIRIENPNSLQDQSHALLKYWLERDGKHATDTNLVFCLTKINRMDIVHLME — within error, -0.184 ± 0.17
